Assay results from patent US20250282874A1 (SUZHOU TRANSCENTA THERAPEUTICS, published 2025).
Residue numbers refer to the chain shown, from its start. In names and notes the source's numbering stands. Like-named read-outs stand apart in the source and are kept apart here. Each block holds one binder with its values, some of them ahead of it.

Experiments:
human PD-L1-His [1] = target: T1, human PD-L1-His (human, UniProt Q9NZQ7 19-238, limits assumed); assay: ELISA, human PD-L1 coated, OD450
T1 construct: not shown: His tag

human PD-L1-His [2] = target: T1, human PD-L1-His; assay: ELISA, human PD-L1-His coated, anti-human IgG-HRP, OD450
[3] = target: T2, Human IL-1β protein (Sino Biological, Cat #10139) (human, UniProt P01584 117-269); assay: cell-based or functional assay
[4] = target: T2, Human IL-1β protein (Sino Biological, …); assay: ELISA, hIL-1β protein coated, anti-human Fc-HRP, OD450
human PD-L1-Fc [5] = target: T3, human PD-L1-Fc (human, UniProt Q9NZQ7 19-239); assay: BLI; against L-CDR1-WT
T3 construct: also called hPD-L1-Fc; human PD-L1-Fc (Sino Biological, 70110-D02H); not shown: Fc part

human PD-L1-Fc [6] = target: T3, human PD-L1-Fc; assay: BLI; PD-L1-Fc loaded on the sensor, scFv in solution
human PD-L1-Fc [7] = target: T3, human PD-L1-Fc; assay: BLI; against L-CDR2-WT
human PD-L1-Fc [8] = target: T3, human PD-L1-Fc; assay: BLI; PD-L1-Fc loaded on the sensor, scFv in solution; remark: listed apart in the source
[9] = target: T4, human PD-L1 expressed on cells (human, UniProt Q9NZQ7 19-290); assay: cell-based or functional assay
[10] = target: T5, hPD-L1 (Acro Biosystems, PD1-H5229) (human, UniProt Q9NZQ7 19-238); assay: ELISA, hPD-L1 coated, anti-human Fc-HRP, OD450
T5 construct: also called human PD-L1; hPD-L1 protein

[11] = target: T4, human PD-L1 expressed on cells; assay: flow cytometry on 293T-PD-L1-CD3L cells, Mean FITC-A as printed

EC50 (human PD-L1-His [1]): 0.347 nM | EC50 (human PD-L1-His [2]): 1.04 nM
B1: Hu4B6_HdLa (antibody, human IgG1, V domains shown)
VH: QVQLVQSGAEVKKPGASVKVSCKASGYVFTDYYMNWVRQAPGQSLEWMGDINPNNGGTSYNHKFKGRVTVTVDKSISTAYMELSRLRSDDTAVYYCVKWGDGPFAYWGQGTLVTVSS
VL: DIQMTQSPSSLSASVGDRVTITCKASQNVGAAVAWYQQKPGKAPKLLIYSASNRYTGVPSRFSGSGSGTDFTLTISSLQPEDIATYYCQQYSNYPTFGQGTKLEIK

EC50 (human PD-L1-His [1]): 0.407 nM
B2: Hu4B6_HgLa (antibody, V domains shown)
VH: B1 VH with G56A
VL: B1 VL
notes: Hu4B6_Hd with G55A, paired with Hu4B6_La

IC50, SEAP at OD620, HEK293-CD40L reporter cells stimulated with human IL-1β [3]: 0.294 nM | EC50 [4]: 0.0113 nM
B3: ACZ885 (antibody, V domains shown)
VH: QVQLVESGGGVVQPGRSLRLSCAASGFTFSVYGMNWVRQAPGKGLEWVAIIWYDGDNQYYADSVKGRFTISRDNSKNTLYLQMNGLRAEDTAVYYCARDLRTGPFDYWGQGTLVTVSS
VL: EIVLTQSPDFQSVTPKEKVTITCRASQSIGSSLHWYQQKPDQSPKLLIKYASQSFSGVPSRFSGSGSGTDFTLTINSLEAEDAAAYYCHQSSSLPFTFGPGTKVDIK
notes: Monoclonal anti-IL-1β antibody; also called Canakinumab

Fold increase (human PD-L1-Fc [5]): 4.08 fold | Kd (human PD-L1-Fc [6]): 6.91 nM | kon (human PD-L1-Fc [6]): 41200 M⁻¹ s⁻¹
B4: 4B6 scFv variant L-CDR1-1 (scFv)
scFv: DIQMTQSPSSLSASVGDRVTITCKASQNVGAIVAWYQQKPGKAPKLLIYSASNRYTGVPSRFSGSGSGTDFTLTISSLQPEDIATYYCQQYSNYPTFGQGTKLEIKGGGGSGGGGSGGGGSQVQLVQSGAEVKKPGASVKVSCKASGYVFTDYYMNWVRQAPGQSLEWMGDINPNNAGTSYNHKFKGRVTVTVDKSISTAYMELSRLRSDDTAVYYCVKWGDGPFAYWGQGTLVTVSS
notes: also called 4B6-L-CDR1-1

Fold increase (human PD-L1-Fc [5]): 4.96 fold | Kd (human PD-L1-Fc [6]): 5.68 nM | kon (human PD-L1-Fc [6]): 271000 M⁻¹ s⁻¹
B5: 4B6 scFv variant L-CDR1-2 (scFv)
scFv: B4 scFv with G30P, I32A
notes: also called 4B6-L-CDR1-2

Fold increase (human PD-L1-Fc [7]): 6.32 fold | Kd (human PD-L1-Fc [8]): 4.37 nM | kon (human PD-L1-Fc [8]): 124000 M⁻¹ s⁻¹
B6: 4B6 scFv variant L-CDR2-3 (scFv)
scFv: B4 scFv with I32A, A51V, N53D
notes: also called 4B6-L-CDR2-3

Fold increase (human PD-L1-Fc [7]): 3.42 fold | Kd (human PD-L1-Fc [8]): 8.06 nM | kon (human PD-L1-Fc [8]): 46800 M⁻¹ s⁻¹
B7: 4B6 scFv variant L-CDR2-1 (scFv)
scFv: B4 scFv with I32A, A51N, N53H
notes: also called 4B6-L-CDR2-1

Fold increase (human PD-L1-Fc [7]): 8.26 fold | Kd (human PD-L1-Fc [8]): 3.34 nM | kon (human PD-L1-Fc [8]): 162000 M⁻¹ s⁻¹
B8: 4B6 scFv variant L-CDR2-2 (scFv)
scFv: B4 scFv with I32A, A51R, N53V
notes: also called 4B6-L-CDR2-2

Fold increase (human PD-L1-Fc [5]): 10.1 fold | Kd (human PD-L1-Fc [6]): 2.78 nM | kon (human PD-L1-Fc [6]): 91100 M⁻¹ s⁻¹
B9: 4B6 scFv variant L-CDR1-3 (scFv)
scFv: B4 scFv with G30K, A31G, I32A
notes: also called 4B6-L-CDR1-3

IC50 (so in the source), luminescence (axis printed OD450), 293T-PD-L1-CD3L cells with Jurkat-NFAT-Luc-PD1 cells [9]: ~1.29 nM | IC50, SEAP at OD620, HEK293-CD40L reporter cells stimulated with human IL-1β [3]: 0.346 nM | EC50 [10]: 0.0363 nM | EC50 [4]: 0.0182 nM | EC50 [11]: 1.51 nM
B10: IgG-scFv-ACZ885-AM4B6 (bispecific antibody)
heavy: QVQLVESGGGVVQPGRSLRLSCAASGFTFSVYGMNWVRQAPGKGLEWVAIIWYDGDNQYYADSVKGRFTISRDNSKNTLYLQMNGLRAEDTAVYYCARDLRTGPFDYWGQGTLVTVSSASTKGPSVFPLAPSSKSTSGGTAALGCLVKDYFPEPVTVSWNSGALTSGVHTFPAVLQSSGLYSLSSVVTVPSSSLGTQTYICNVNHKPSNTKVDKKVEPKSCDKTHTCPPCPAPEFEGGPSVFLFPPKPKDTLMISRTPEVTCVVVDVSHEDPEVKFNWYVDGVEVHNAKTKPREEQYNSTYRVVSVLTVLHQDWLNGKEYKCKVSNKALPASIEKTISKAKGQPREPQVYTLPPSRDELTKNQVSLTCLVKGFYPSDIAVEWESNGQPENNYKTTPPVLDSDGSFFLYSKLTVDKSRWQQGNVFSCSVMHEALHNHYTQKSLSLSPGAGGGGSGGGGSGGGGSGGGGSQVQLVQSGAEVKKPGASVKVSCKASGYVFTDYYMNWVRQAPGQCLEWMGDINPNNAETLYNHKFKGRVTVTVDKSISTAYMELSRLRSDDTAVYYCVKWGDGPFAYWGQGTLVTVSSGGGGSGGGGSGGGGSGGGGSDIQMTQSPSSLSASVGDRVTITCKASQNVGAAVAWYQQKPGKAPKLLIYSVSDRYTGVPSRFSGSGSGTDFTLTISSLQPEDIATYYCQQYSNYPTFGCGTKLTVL
light: EIVLTQSPDFQSVTPKEKVTITCRASQSIGSSLHWYQQKPDQSPKLLIKYASQSFSGVPSRFSGSGSGTDFTLTINSLEAEDAAAYYCHQSSSLPFTFGPGTKVDIKRTVAAPSVFIFPPSDEQLKSGTASVVCLLNNFYPREAKVQWKVDNALQSGNSQESVTEQDSKDSTYSLSSTLTLSKADYEKHKVYACEVTHQGLSSPVTKSFNRGEC
notes: Anti-IL-1β IgG (Canakinumab) with the AM4B6 scFv on the C-terminus of the heavy chain
